According to US20150182581A1 (COUNCIL OF SCIENTIFIC AND INDUSTRIAL RESEARCH, published 2015):

Each binder was assayed against ASK-1 + Nef (Nef and ASK1g co-transfected in ATCC CRL-1573 cells) (HIV-1; human, UniProt Q99683 1-1050) (assay: cell-based or functional assay).
ASK-1 + Nef (Nef and ASK1g co-transfected in ATCC CRL-1573 cells), sequence (Q99683 1-1050): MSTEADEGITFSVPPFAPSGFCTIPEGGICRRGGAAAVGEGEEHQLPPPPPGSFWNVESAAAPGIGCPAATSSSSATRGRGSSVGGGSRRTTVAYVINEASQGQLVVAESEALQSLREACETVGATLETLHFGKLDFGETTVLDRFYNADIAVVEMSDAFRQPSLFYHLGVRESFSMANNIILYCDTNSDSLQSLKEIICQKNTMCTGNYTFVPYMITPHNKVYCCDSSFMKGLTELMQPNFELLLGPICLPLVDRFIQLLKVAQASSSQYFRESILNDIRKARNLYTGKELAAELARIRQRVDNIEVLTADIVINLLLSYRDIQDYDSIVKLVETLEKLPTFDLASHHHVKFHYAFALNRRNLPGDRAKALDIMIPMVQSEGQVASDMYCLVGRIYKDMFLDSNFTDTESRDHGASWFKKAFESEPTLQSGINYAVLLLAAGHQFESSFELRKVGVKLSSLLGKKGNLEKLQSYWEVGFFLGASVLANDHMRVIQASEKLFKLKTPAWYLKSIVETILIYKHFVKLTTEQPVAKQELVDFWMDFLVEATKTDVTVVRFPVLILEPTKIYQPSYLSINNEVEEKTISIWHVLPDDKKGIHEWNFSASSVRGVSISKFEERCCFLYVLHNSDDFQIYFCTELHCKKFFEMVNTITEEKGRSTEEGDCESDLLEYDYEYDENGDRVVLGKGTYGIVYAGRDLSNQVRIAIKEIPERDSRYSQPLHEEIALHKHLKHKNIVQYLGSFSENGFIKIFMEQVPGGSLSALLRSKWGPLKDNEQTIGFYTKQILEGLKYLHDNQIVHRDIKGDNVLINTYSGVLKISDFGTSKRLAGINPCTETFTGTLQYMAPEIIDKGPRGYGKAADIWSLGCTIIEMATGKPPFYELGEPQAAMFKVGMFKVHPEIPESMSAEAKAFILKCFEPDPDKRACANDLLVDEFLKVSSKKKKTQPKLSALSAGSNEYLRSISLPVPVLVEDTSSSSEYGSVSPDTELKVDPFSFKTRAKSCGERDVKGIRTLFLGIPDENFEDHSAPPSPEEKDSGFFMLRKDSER

Binder | % of Annexin V cells means apoptotic cells
TPGPGVRYP [Peptide-1] | 22.4%
PVRPQVPLRP [Peptide-5] | 22.4%
GENNCLLH [Peptide-2] | 25%
LHGMEDPE [Peptide-4] | 23%
DEVGEANN [Peptide-3] | 40.4%
